Laboratory results as given in article PMC6173736.

How the values were obtained:
Assay in all cases: SEC; HPLC-SEC on a bioZen 1.8 µm SEC-3 column in 150 mM KPi, pH 6.8; absorbance at 280 nm and 655 nm; samples after clicking with BCN-649, in vitro phosphopantetheinylation and purification over Ni-NTA magnetic beads
[1] = target: full-length mFAS mutant Gly2113AzPhe (mouse) (UniProt P19096)
[2] = target: full-length mFAS mutant Gly2113AzPhe with additional ACP knock-out mutation Ser2150Ala (mouse) (UniProt P19096)
[3] = target: murine fatty acid synthase type I, wild type, full-length (mouse) (UniProt P19096); settings: remark: other sources report otherwise

Sequence of full-length mFAS mutant Gly2113AzPhe with additional ACP knock-out mutation Ser2150Ala (P19096 1-2112, change not shown): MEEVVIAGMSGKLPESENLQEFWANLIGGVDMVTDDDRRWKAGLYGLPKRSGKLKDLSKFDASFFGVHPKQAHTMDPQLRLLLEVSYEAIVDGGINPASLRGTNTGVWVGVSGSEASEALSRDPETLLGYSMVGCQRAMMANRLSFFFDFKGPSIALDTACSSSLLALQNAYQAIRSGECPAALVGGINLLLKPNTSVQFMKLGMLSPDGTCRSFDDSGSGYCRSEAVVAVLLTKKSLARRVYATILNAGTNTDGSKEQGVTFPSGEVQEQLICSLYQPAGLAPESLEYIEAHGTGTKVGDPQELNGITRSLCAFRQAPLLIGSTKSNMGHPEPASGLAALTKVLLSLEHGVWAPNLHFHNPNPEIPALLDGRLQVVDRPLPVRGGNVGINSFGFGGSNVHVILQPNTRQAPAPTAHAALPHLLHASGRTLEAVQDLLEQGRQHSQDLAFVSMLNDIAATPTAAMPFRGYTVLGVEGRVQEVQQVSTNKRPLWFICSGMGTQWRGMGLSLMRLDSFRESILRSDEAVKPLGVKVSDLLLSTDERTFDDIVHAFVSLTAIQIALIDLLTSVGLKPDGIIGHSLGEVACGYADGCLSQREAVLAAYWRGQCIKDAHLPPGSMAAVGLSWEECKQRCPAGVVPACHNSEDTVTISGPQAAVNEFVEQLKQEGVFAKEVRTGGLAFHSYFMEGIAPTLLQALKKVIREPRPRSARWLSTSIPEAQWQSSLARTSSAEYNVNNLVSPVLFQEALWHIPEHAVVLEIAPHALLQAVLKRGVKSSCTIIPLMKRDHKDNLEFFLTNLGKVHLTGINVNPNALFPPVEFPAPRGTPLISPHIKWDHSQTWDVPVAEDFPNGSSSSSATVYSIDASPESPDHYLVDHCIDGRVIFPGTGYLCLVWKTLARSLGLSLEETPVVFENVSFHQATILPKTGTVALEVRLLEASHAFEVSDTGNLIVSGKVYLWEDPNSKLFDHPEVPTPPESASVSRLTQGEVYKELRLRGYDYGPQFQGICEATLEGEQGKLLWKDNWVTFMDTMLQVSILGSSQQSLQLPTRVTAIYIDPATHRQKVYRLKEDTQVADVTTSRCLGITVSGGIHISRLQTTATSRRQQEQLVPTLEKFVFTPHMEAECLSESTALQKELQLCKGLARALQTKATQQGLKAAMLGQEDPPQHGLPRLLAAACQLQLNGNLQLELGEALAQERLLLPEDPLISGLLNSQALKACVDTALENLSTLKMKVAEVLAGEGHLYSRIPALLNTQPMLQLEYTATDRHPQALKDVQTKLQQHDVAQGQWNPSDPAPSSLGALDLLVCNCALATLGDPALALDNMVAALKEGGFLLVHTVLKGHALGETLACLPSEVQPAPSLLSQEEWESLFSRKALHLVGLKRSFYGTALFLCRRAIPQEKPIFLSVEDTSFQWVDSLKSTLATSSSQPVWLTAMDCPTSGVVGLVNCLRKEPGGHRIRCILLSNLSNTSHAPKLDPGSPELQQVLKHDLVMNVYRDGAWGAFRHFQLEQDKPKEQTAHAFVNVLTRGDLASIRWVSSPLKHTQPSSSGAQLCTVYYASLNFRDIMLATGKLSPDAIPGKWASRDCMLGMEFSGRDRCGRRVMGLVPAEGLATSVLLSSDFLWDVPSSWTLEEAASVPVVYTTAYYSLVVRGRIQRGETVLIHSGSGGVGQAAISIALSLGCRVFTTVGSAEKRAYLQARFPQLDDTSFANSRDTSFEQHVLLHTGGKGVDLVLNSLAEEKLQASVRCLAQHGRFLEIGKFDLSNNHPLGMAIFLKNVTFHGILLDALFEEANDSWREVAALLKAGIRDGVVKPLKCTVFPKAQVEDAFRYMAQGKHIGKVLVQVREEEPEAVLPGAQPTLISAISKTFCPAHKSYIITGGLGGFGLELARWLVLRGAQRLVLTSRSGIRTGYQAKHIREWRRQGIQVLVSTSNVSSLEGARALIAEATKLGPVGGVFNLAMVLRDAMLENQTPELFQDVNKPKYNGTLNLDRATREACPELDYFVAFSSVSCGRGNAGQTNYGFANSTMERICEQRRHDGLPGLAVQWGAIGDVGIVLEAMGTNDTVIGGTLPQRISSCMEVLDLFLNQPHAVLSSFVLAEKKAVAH

full-length mFAS mutant Gly2113AzPhe (from UniProt P19096 1-2504) (enzyme)
stoichiometry N [1]: 2

full-length mFAS mutant Gly2113AzPhe with additional ACP knock-out mutation Ser2150Ala (from UniProt P19096 1-2504) (enzyme)
stoichiometry N [2]: 2

murine fatty acid synthase type I, wild type, full-length, P19096 1-2504
stoichiometry N [3]: 2
